The DeepSol protein solubility set

assay: soluble on expression in E. coli; label from the status in PepcDB or PDB records

Sequence	soluble on expression in E. coli
MGSDKIHHHHHHMKILVYGINYSPELTGIGKYTGEMVAWMAQEGHEVRVITAPPYYPQWKVGERYSAWRYRREEGEATVWRCPLYVPKQPSTLKRLLHLGSFALSSFFPLMAQRRWKPDRIIGVVPTLFCTPGMRLLATLSGARTVLHIQDYEVDAMLGLGMAGKGKRGSVARLATAFERSALRNVDNVSTISRSMMNKAREKGVAAEKILFFPNWSEVARFQDVNDADVTALRQQLGLPEGKKIVLYSGNIGEKQGLEKVIDAAERLRDRPLIFAIVGQGGGKARLENMARERGLANIKFLPLQPYDALPALLKMGDCHLVVQKRGAADAVLPSKLTNILAVGGNAVITAEPHTELGQLCARYPGIAVCVEPESTDALVNGISQALAMPKNNTTAREYAERTLNKENVLRQFIADIRG	not soluble
MPTPEKRLRLMQLASNSLPVGGYSWSQGLEWAVEAGWVEDSAAFEHWQQLQMEQSFFAVDLPLLARLYRACEAGDPDSAGRWTAYLLACRETRELRDEERNRGAAFTRLLVDWQPDCPAEWRKLCQQSQLTGMAWLGVRWQISVSDLALSLGYSWIESAVMAGVRLVPYGQLAAQQLIMRLCARYAANMDSALATPDHAIGSATPLASIASARHETQYSRLFRS	not soluble
MPITRTGLPHAVASTSQTQETSQASASQGVLDPGTVPPRRAETFDGLSALPNDLRREIAQRCGPRSLVRLGSVSRQMAEDTRDVRAFLTARPRYDPSLEFGDVHSAESMRVALDEVTHFPYPDDEDRSEQILRGYGRLAARIPSLPQAQRFEAFTAVLNHATRHSGNMAFRVVARLTDDLGCLPEDLRALAFHAILPSLIATRRQALQAAAGAAHVGHIGAVAEADAGGVQGDGEPGPQGAVAPAQGGAAGGIGGALPFNLLASAIRHLPEEAVNLAITEAAALQTGPRLLAEVTLRLHLVGLEPIHRFQQAYAQLAEHLARSGDGAEALTHLVALLNRLPNPGVRQAAFRELTRAVHALDSTESGAAVLRRLAGALPHQPAAVRYLCSLDVLAAAASLFPSEQIPVIAAVRAQAAAIPNQAAELIARCDDAIATASMMLATVSRRYMDM	not soluble
AQKHVAIALCGKGNIGSSWLKLFAEQKEKLEQRHGMNFELVAVVDSQTYWFNEQGINPNQVATHFQDEALPNQEQSWLKKLGALEGYDEAVVIDVTASEELAEQYLDIAEHGLHLISANKVAGSAAGNYYYQVKDAFHKIGRHWLYNATVGAGLPINHTVRDLRESGDDIMALSGIFSGTLSWLFQQYDGSL	not soluble
GPGSMRARSLLRQQASAATLQPLRSVVAIGLRQEFDPHWPLPLPPPLPMNKQKHTLVLDIDETLIHTYAMGLHDDSKDHTRDPALQGVSLIDYNVLLRPHLKEFLEEVNQLFEVVFWTAGTASYCCAVLDALEQQVMQLPRSFYSYVELAKESRKMKSSTSHTNFYALSRTQTLEQQGYMKYLPMLGRKMSSVVMLDDNVRSFPLTPRNGIRIDAFDPDDHVLQRYIFALRRVQKEKPHEMEAALVQCLQQGQQE	not soluble
MSLKDGTFQIAIFSDMHFGQYESTTGPEQDRNSVEVLNKVLDYDTPDLVVLNGDLINGDSTWKHNSTHYIDMIVEPMVNRSLTWASTYGNHDHNYNINGDDILVREQMWPGARTQKMVNKTRSGTTNYYLPVYPSDCSNTSDCSPQMILWFFDSRGGNYYQGSWQENWVDQSVVDWFNETSTELTSKHNKTIPSLAFVHVPPNATVALQTELGIRKNNQPGINDDPPVPQQGYGWCADGTPTYDCPYGGQDIPFMEALVTIPGIIGLFYGHDHGNTWCYRWDTKLDGMDIEGNGIHLCYGQHSGYGGYGDWIRGAREIVVTEDMLEKNEVETYIRLESGDVVGKVMLNSTYNEGHHHHHH	not soluble
MGSDKIHHHHHHAQYVVTGGSGSPMKASQSSGDSAERLEVYLVYGMDNVTISYTSSSSSSHQWYRYKTKRLEAEKVASTQNGTTSTIRNVEEGYGYFVEEGAVSRYVWIVDYSKYTLNISNLHVSDNSDPCSGLVLAGTGTIQPIYYYWPNTGTRRELSRQFDVIYNTLEYNSDKKEYTSKQETAVIEGNLFGKSIPAPWCDTEICVKGDYFARHFGKEVTLCIDEYQAAAVDAHIDTLLIEQEAPNMNTTKSGYCAPATVQFSAIANTPTAALFNWKIYRQGEEDNPVVRFTGEEVDYTFNQSGTFIIKLEVSDQSTTCSTEDEVQIDISESYLMIPNAFSPGTTPGINDEFRVAYKSLVKFKAWIFNRWGLQMYYWTDPAQGWDGKKGGKYVQPGVYFYVIEAEGSDGIKYKEKGDINILRPKTIQDENENIQE	not soluble
MRSKYIVIEGLEGAGKTTARNVVVETLEQLGIRDMVFTREPGGTQLAEKLRSLLLDIKSVGDEVITDKAEVLMFYAARVQLVETVIKPALANGTWVIGDRHDLSTQAYQGGGRGIDQHMLATLRDAVLGDFRPDLTLYLDVTPEVGLKRARARGELDRIEQESFDFFNRTRARYLELAAQDKSIHTIDATQPLEAVMDAIRTTVTHWVKELDA	soluble
MPGACGIYALATVSKPDPDMTQIITALAEISERYRALFVDLWGCVHNGVTAYPEAVAALQAYRAAGGIVVLVTNSPKPRAGVATQLSQFKVPQDAYDTIATSGDSARSAMFRGAVGQKVYFMGEWERDAGFFEPLKLLDSPVEITRVPLQEAEGIVCCGPFDPMADPAVNRPDFLYAKTKGMKLLCANPDIVVDRGEIREWCAGALARLYTEMGGESLYFGKPHPPIYDLARRRLLSLGADIADSEILAIGDGIQTDIAGGQGEGIDSLFISGGLAASETKTGHSPDPAALTAYLDRENRMPTYTIGQLR	not soluble
MDTMAKINQFRDERNWRPHHNEKDLALSICLEAAELLELFQWKTAEEGIKQEERIKEELADVLIYSYMMADNLGFDLDEIIEEKLKKNALKYPVPH	not soluble
MGHHHHHHSHLPGNTRKMDKTTVLEKVIGFLQKHNEVSAQTEICDIQQDWKPSFLSNEEFTQLMLEALDGFIIAVTTDGSIIYVSDSITPLLGHLPSDVMDQNLLNFLPEQEHSEVYKILSSHMLVTDSPSP	soluble
MRGCNKETGEFLGPSRSQQRRTALEVLVLSEKLAALTPAQLAKLPIPERLLPHITETKRITSHIARKRQLAFLAKQMRREDDTTLEAIREKLNASGIQAQREVATLHRTEQWRKRLLEEGDSALTELLNQYPQADCGKLRQLLRNSKTEQARNKAPQAFRELYQVLHGLIITQ	not soluble
MVLSIERKRAIVQYVKSRKIATVSELAKHFEVHEATIRRDLTSLEKDKKLKRTHGGVMIEEKVVSEPNWKKRSEVRYEEKQRIATLAATMVKDGDTIILDAGTTTGHIATALKDRSKLTVITNDINVASIMRFSPSKVIVTGGVIYPETFILNGMITSGTLQSIHVHKAFVTTPALDIDKGLMHYDEYLIPAKQQMLHSADEVILVTDHTKFGRISLYKYAALDEISSIITGKEIDPVLKEQFEEKGMQIYTTLEHHHHHH	soluble
MAHHHHHHMTNLNVESGYFNDELKEEANEANFMYTNISMLIRAHRKDRNKLTLQNKKLNLIKIVGFVLAIEEKKEFIVYTVDDSTGYIKAKLLLTYSYSACNDKNEDIKVDDMVQIFGICNTVSINEDLTISISSINKVNSLNHLCHHHLLVFHNYLKFLETQKKNLALEDERAKNEEDEIAPHVPTNDNPFFNSFFY	not soluble
MLAMKLGIVGLGGWVTGAHIPALTDLGIKVDYCADIDEKRVKDLSQKTGCKGYLDYKEMLRNENPDLVLVAVPHSLHAIIALDAINNDANVYVEKPMATSFQEALTLVEASRKRNKILVVGHENRFNPAMLIAKKLIRGGEVGKIYHMRGFYIRQRGIPTSPTFIKKDLAKGGAVFDIGTHIIDLLLFLSDFPTPKSVTGKTYNAFSEDKTKFSAYPSPNLPNFKVEVEDFGSAFLKLGDEISAYVEVSWASYIKENKMEVVILGDNGGIHIDNGVLNFMRNIEDELFISSPLTQQKGSVYREVWRTVMESISKGFPEYPLCSAEQGAIGVAILESIYKSALEGREVKIDIPQWFLKQFQPRALEHHHHHH	not soluble
AIASKREDEGCARKRRTEAGQRSEDCMNPNSVVISAFKVFQQELDTRYDKYERLVKISRDVTIESKRTIFLLHRVASVPDVEEILNEAEVKLDGVRQKIGQIAEELRGEDLHQFHRAFTPGIQEYVEAVSFHHFIRHRSLISLEEINARLVFIRDNNKAVGEGTFSSPCVLTFQITPTDYLLGVADLTGELMRMCISSVGNGDMDTPFQLSGFLRQIHDGFSLIGNTGPYEVSKKLHALRQSLGKVEDACYTLRVRGSEIPKHMLADVFSSRAAHIDPDDAMA	soluble
MDIISVALKRHSTKAFDASKKLTPEQAEQIKTLLQYSPSSTNSQPWHFIVASTEEGKARVAKSAAGNYVFNERKMLDASHVVVFCAKTAMDDVWLKLVVDQEDADGRFATPEAKAANDKGRKFFADMHRKDLHDDAEWMAKQVYLNVGNFLLGVAALGLDAVPIEGFDAAILDAEFGLKEKGYTSLVVVPVGHHSVEDFNATLPKSRLPQNITLTEV	soluble
MIVTLLGTGDSPGTPILNCHCRTCEDARRKGWERKRFSVMVQNNGKTVLIDTSPDLRRQLLDCGVEKVDAVIWTHCHFDHFGGFGEFYRVQNNVKVYSTPQIHEDIGHFMKFMSYKPVEVEAFENFTIAGMDFTLLPVNHPPVSAVGVKVEWKGYKVVVSGDTNVRIPEATLREMQNPDLLIVEALAPTGRFRKHMNAKEALELAKRLNAGKVVLTHLGHFFPPHHLAIKSYPVGEDYQSFSFGEGRLDEFFGDLEHHHHHH	not soluble
DQPGHYVGTDPNLGALSAFLAGETEEVPDANEIMPVLWDMVTTGVAQGESARAVRTAFVSNPSAALTGLSESLVPAEKQPGRVVESGLVRAKFTASNDESGSSHHRAPWIAVLELLGSLDAMTDQSGKPIELETDAPAPAGKKLSEGVVAKRALLAEIKELAGENAVAIVKTARDTTLDTACIDQSTVAIAGMAKAQQEALLEMFFSRSKIVPGLIMDDGNRLLAVFETFNKRVELNELLASEGLIKSAVTLLRTLRSTDKNLYSLARIRFDKLDGVDTNAPENMWSLTPVVSLVLALAARMHAHGFISSNKTLDSATPGWAKLADIVPDLVTGDLIAADAIILAMKKPGIA	not soluble
MSLTTIIFDNGGHNMKIGTIDSESPRLVPNSIVKAKHEKKRVFVAHEQEECSDKFSLFYVRPIERGYVVNWDTQQQIWEKTFGSMDVEASTSRIALTDNNYLIPALPDVSSEILFDYFGFTEVHKTSASTLVAKHSNKINNEKCAVVVDSGFSWTTVASFVNGMLIQDSVIRIDVGGKALTNKLKDWVSYRQLNVSEETYVINECKEDLCFVSQNFDESMKEARNRFQENTTMKRYIMPDFHSTFRGVVKDVKEPHDPQIPSIHLGVERFAIPEILFNPSDIDIDQCGVAEAVIESICQCPEALRPALAENIIVIGGSSCFPGFRERLEREVRSMLPAEYGLNVSNDVINPQTHSWHCGQELLTASKVPWINRKDWDERGDSLEFSNFFQTLVQSDELKGTRNFDDQREKSPKEDEDF	not soluble
ERLFQVFISLGVGKSAIRQHLASLDPTNSRDIEALADELSGKRPLLYRGVAMLLAHHSFAKSLREDAAGMWLQEKRHQLHSGLR	not soluble
SNAMLHYVHVGNKKSPNTLLFVHGSGCNLKIFGELEKYLEDYNCILLDLKGHGESKGQCPSTVYGYIDNVANFITNSEVTKHQKNITLIGYSMGGAIVLGVALKKLPNVRKVVSLSGGARFDKLDKDFMEKIYHNQLDNNYLLECIGGIDNPLSEKYFETLEKDPDIMINDLIACKLIDLVDNLKNIDIPVKAIVAKDELLTLVEYSEIIKKEVENSELKIFETGKHFLLVVNAKGVAEEIKNFI	soluble
